From publication doi:10.1101/2021.10.11.463801, “JIP3 regulates bi-directional organelle transport in neurons through its interaction with dynein and kinesin-1” (bioRxiv, 2021)
Positions count from the first letter of the chain named. In names and notes the source's numbering stands. Blank lines part the entries; values can stand above or below the binder they belong to.

Assays:
[1] = molecular target: the molecule itself; experiment: AUC; sedimentation velocity, 42'000 rpm, 20 °C; 50 mM HEPES, 100 mM NaCl, 0.5 mM TCEP, pH 7.5; c(S) by SEDFIT
[2] = molecular target: T1, mouse JIP3[186-505] (mouse, UniProt Q9ESN9-5 186-505); experiment: pull-down; GST-tagged bait on glutathione agarose resin; purified recombinant proteins mixed in 50 mM HEPES, 100 mM NaCl, 5 mM DTT, pH 7.5; 1 h at 4 °C; eluted with 15 mM reduced L-glutathione; SDS-PAGE with Coomassie Blue or immunoblot; details: both partners purified
T1 construct: mouse JIP3, residues 186-505 (holds the leucine zipper); numbers count on UniProt Q9ESN9-5; also called JIP3[186-505] wild type; source: E. coli (BL21, BL21-CodonPlus-RIL or Rosetta), purified
T1 sequence (looked up): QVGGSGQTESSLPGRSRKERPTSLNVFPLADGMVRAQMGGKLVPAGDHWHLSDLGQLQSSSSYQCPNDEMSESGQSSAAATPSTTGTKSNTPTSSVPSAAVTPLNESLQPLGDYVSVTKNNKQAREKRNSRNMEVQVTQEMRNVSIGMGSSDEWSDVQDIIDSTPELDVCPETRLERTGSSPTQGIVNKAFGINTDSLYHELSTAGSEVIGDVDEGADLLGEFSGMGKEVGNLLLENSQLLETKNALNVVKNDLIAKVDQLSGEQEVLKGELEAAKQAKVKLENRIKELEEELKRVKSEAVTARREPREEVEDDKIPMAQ

B1: JIP4[1-103] (domain or fragment, human, UniProt O60271-1 1-103, looked up)
chain: MELEDGVVYQEEPGGSGAVMSERVSGLAGSIYREFERLIGRYDEEVVKELMPLVVAVLENLDSVFAQDQEHQVELELLRDDNEQLITQYEREKALRKHAEEKF
notes: human JIP4, residues 1-103 (RH1 domain); UniProt O60271-1; Dimer by AUC; also called JIP4-RH1; RH1 domain of JIP4; source: E. coli (BL21, BL21-CodonPlus-RIL or Rosetta), purified
- stoichiometry N [1]: 2

B2: JIP3[1-108] (domain or fragment, human, UniProt Q9UPT6-1 1-108, looked up)
chain: MMEIQMDEGGGVVVYQDDYCSGSVMSERVSGLAGSIYREFERLIHCYDEEVVKELMPLVVNVLENLDSVLSENQEHEVELELLREDNEQLLTQYEREKALRRQAEEKF
notes: UniProt Q9UPT6-1; Dimer by AUC; also called JIP3-RH1; RH1 domain of JIP3; source: E. coli (BL21, BL21-CodonPlus-RIL or Rosetta), purified
- stoichiometry N [1]: 2

B3: JIP3[1-108] V60Q (domain or fragment, human, UniProt Q9UPT6-1 1-108, looked up)
chain: B2 chain with V60Q
notes: human JIP3, residues 1-108 (RH1 domain) with V60Q; UniProt Q9UPT6-1; Dimer by AUC; also called JIP3-RH1 V60Q; source: E. coli (BL21, BL21-CodonPlus-RIL or Rosetta), purified
- stoichiometry N [1]: 2

- binding result [2]: binds
B4: GST-tagged KLC1[185-501] (domain or fragment, human, UniProt Q07866-1 185-501, looked up)
chain: DDPGQGIQQQHSSAAAAAQQGGYEIPARLRTLHNLVIQYASQGRYEVAVPLCKQALEDLEKTSGHDHPDVATMLNILALVYRDQNKYKDAANLLNDALAIREKTLGKDHPAVAATLNNLAVLYGKRGKYKEAEPLCKRALEIREKVLGKDHPDVAKQLNNLALLCQNQGKYEEVEYYYQRALEIYQTKLGPDDPNVAKTKNNLASCYLKQGKFKQAETLYKEILTRAHEREFGSVDDENKPIWMHAEEREECKGKQKDGTSFGEYGGWYKACKVDSPTVTTTLKNLGALYRRQGKFEAAETLEEAAMRSRKQGLDNV
notes: human kinesin light chain 1 (KLC1), residues 185-501 (TPR domain); UniProt Q07866-1; also called KLC1 fragment; KLC1 TPR domain; source: E. coli (BL21, BL21-CodonPlus-RIL or Rosetta), purified; not shown: GST, N-terminal, kept
